These results are taken from patent US20250263677A1, “BIOCATALYTIC USE OF NONHEME IRON PROTEINS FOR MOLECULAR FUNCTIONALIZATION” (The Johns Hopkins University, priority 2022, published 2025).

Changes are numbered by the printed parent chain. In names and notes the source's numbering stands. Where two headings read alike, the source gives them in different places.

Series [1] can be described thus: 1NF azidation with Sav HppD variants from directed evolution (whole E. coli cells). Format: biochemical. The note with it: OD600=10, 10 mM 1NF, 25 mM NaN3, 2.5 mM Fe2+; for TTN (total turnover): KPi pH 7.4, anaerobic, 24 hours. How it is done:
FIGS. 9A-9C is a computational model of the Sav HppD active site, a reaction scheme, and a plot of total turnovers for various Sav HppD variants. […] The computational model was generated from protein database entry 1T47. FIG. 9B provides the azidation reaction scheme for the reaction screened with a high-throughput screening platform. FIG. 9C provides representative variants identified during the directed evolution of Sav HppD. Experiments were performed at analytical scale using suspensions of E. coli expressing Sav HppD variants (OD600=10), 10 mM substrate 1NF, 25 mM NaN3, 2.5 mM Fe^2+ in KPi buffer (pH 7.4) at room temperature under anaerobic conditions for 24 hours.
In a typical experiment, ferrous ammonium sulfate (20 μL, 100 mM in water), sodium azide (20 μL, 1 M in water), and N-fluoroamide substrate (20 μL, 1.5 M in DME) were added to E. coli harboring non-heme iron enzyme variant (400 μL, adjusted to the appropriate OD600) in a 2 mL screw top GC vial in an anaerobic chamber. The vial was capped and shaken at 680 rpm at room temperature for 24 hours. At the end of the reaction, the vial was opened and the reaction was quenched with 6 mL of a hexanes/ethylacetate solution (4:6 v/v) of internal standard 1,2,3-trimethoxybenzene (0.5 mM final concentration). The reaction mixture was transferred to a 15 mL centrifuge tube, vortexed (10 seconds, 3 times), then centrifuged (10,500×g, 5 min) to completely separate the organic and aqueous layers. An aliquot (200-300 μL) of the organic layer was used for product quantification via GCMS and enantioselectivity via chiral HPLC or chiral GC. The total turnover numbers (TTNs) reported are calculated with respect to non-heme iron enzymes expressed in E. coli and represent the total number of turnovers obtained from the catalyst under the stated reaction conditions.
A high-throughput screening (HTS) platform based on copper-catalyzed azide-alkyne cycloaddition (CuAAC) was utilized for Sav HppD variants, and provided reliable quantification of enzymatic azidation products with a coefficient of variation of 9% and a detection limit of 4 μM. With this HTS platform, more than 5,000 clones generated through error-prone PCR or site-saturation mutagenesis were evaluated.

Series [2] is described as follows: Azidation reaction condition optimization with Sav HppD Az1 and Az2 (whole E. coli cells). It is filed as biochemical.
Series [3] can be described thus: Kinetic analyses of 1NF azidation with purified Sav HppD protein variants. Format: biochemical. How it is done:
Kinetic analyses for wild-type Sav HppD, Az1, and Az2 mediated 1NF azidation were performed in an anaerobic chamber. Ferrous ammonium sulfate (10 μL, 100 mM in water) and sodium azide (10 μL, 1 M in water) were added to a buffer solution containing purified Sav HppD protein variant (20 M, 2.4 mL) and the solution was shaken at 600 rpm for 5 minutes. A 1,2-dimethoxyethane solution of N-fluoroamide substrate 1NF was added to the solution (final concentration ranging from 0.25 mM to 15 mM in reaction solution). An aliquot of 100 μL of the reaction mixture was removed at 3, 6, 9, 12, and 15 minutes and quenched by vortexing with 300 μL 6:4 EtOAc/hexanes solution containing 0.5 mM (final concentration) internal standard 1,2,3-trimethoxybenzene. After centrifugation at 12,000 rpm for 10 mins, an aliquot (200 μL) of the organic layer was taken for GCMS analysis for product quantification.

The nature of series [4]: Substrate scope of enzymatic azidation of N-fluoroamide substrates (whole E. coli cells). It is filed as biochemical. The following applies: across the substrates and conditions tested. How it is done:
FIGS. 3A-3C is an illustration with reaction products generated from exemplary substrate compounds. […] Experiments were performed at analytical scale using suspensions of E. coli expressing Sav HppD variants in KPi buffer (pH 7.4) at room temperature under anaerobic conditions for 24 hours. The absolute configuration of enzymatically synthesized azidation product 1N was determined to be S via X-ray crystallography. The absolute configurations of all other azidation products were inferred by analogy. FIG. 3B summarizes a preparative scale synthesis and absolute configuration determination of product 1N. […]
In a typical experiment, ferrous ammonium sulfate (20 μL, 100 mM in water), sodium azide (20 μL, 1 M in water), and N-fluoroamide substrate (20 μL, 1.5 M in DME) were added to E. coli harboring non-heme iron enzyme variant (400 μL, adjusted to the appropriate OD600) in a 2 mL screw top GC vial in an anaerobic chamber. […] An aliquot (200-300 μL) of the organic layer was used for product quantification via GCMS and enantioselectivity via chiral HPLC or chiral GC. The total turnover numbers (TTNs) reported are calculated with respect to non-heme iron enzymes expressed in E. coli and represent the total number of turnovers obtained from the catalyst under the stated reaction conditions. […]

Series [5] is classed as biochemical, E. coli. Here is the method:
The reactions were performed by adding ferrous ammonium sulfate (10 μL, 100 mM in water), sodium azide (10 μL, 1 M in water), and N-fluoroamide substrate 1NF (10 μL, 400 mM in DME) to E. coli harboring non-heme iron enzymes (400 μL, adjusted to OD600=40) in a 2 mL screw top GC vial. The vial was capped and shaken at 680 rpm at room temperature for 24 hours. At the end of the reaction, the vial was opened and the reaction was quenched with 0.8 mL of a hexanes/ethylacetate solution (4:6 v/v) of internal standard 1,2,3-trimethoxybenzene (0.5 mM final concentration). The reaction mixture was transferred to a 2 mL microcentrifuge tube, vortexed (10 seconds, 3 times), then centrifuged (14,000×g, 5 min) to completely separate the organic and aqueous layers. An aliquot (200-300 μL) of the organic layer was used for product quantification via GCMS and enantioselectivity via chiral HPLC or chiral GC.

Where [6] appears, read: 1NF (10 μL, 800 mM), OD600 = 10.
Where [7] appears, read: 1NF (10 μL, 1.5M), Fe^2+ (20 μL, 100 mM), NaN3 (40 μL, 1M), OD600 = 10.
Where [8] appears, read: 1NF (20 μL, 1.5M), Fe^2+ (20 μL, 100 mM), NaN3 (40 μL, 1M), OD600 = 10.
[9] abbreviates: 1NF (10 μL, 400 mM), Fe^2+ (10 μL, 100 mM), NaN3 (10 μL, 1M), OD600 = 10.
Setting [10] is: 1NF (20 μL, 1.5M), Fe^2+ (20 μL, 100 mM), NaN3 (40 μL, 1M), OD600 = 40.
The mark [11] stands for this setting: whole E. coli cells OD600=40, 1NF, NaN3, Fe2+, 24 hours.

B1: HppD Az1: sextuple mutant Sav HppD V189A F216A P243A N245Q Q255A L367I, SEQ ID NO: 2 (protein)
chain: MTQTTHHTPDTARQADPFPVKGMDAVVFAVGNAKQAAHYYSTAFGMQLVAYSGPENGSRETASYVLTNGSARFVLTSVIKPATPWGHFLADHVAEHGDGVVDLAIEVPDARAAHAYAIEHGARSVAEPYELKDEHGTVVLAAIATYGKTRHTLVDRTGYDGPYLPGYVAAAPIVEPPAHRTFQAIDHCAGNVELGRMNEWVGFYNKVMGFTNMKEAVGDDIATEYSALMSKVVADGTLKVKFAIQEPALAKKKSAIDEYLEFYGGAGVQHIALNTGDIVETVRTMRAAGVQFLDTPDSYYDTLGEWVGDTRVPVDTLRELKILADRDEDGYLLQIFTKPVQDRPTVFFEIIERHGSMGFGKGNFKAIFEAIEREQEKRGNL
For the molecule B1, in series [1], the “1N/1A (ratio of 1N to 1A among products)” value came out at 15.5. The “1N/1F (ratio of 1N to 1F among products)” value in series [1] turned out to be 53.8. The figures for the “TTN (total turnover)” value in series [1] and in series [1] (listed as Sav HppD Az1) were 1340 ± 40 and 1340, respectively. For the same molecule, the 1/1A worked out at 18.0 in series [2] (setting [6]); 19.5 in series [2] (setting [7]); 20.0 in series [2] (setting [8]); 14.0 in series [2] (NaN3 (20 μL, 1M)); 16.4 in series [2] (OD600 = 10); 15.5 in series [2] (initial conditions). In addition, the 1/1F in series [2] (setting [6]) is 52.0; in series [2] (setting [7]), 47.0; in series [2] (setting [8]), 55.0; in series [2] (NaN3 (20 μL, 1M)), 52.0; in series [2] (OD600 = 10), 48.0; in series [2] (initial conditions), 54.0. Also, the TTN in series [2] (setting [6]) is given as 2480 ± 30; in series [2] (setting [7]), 3100 ± 60; in series [2] (setting [8]) it was 4290 ± 50; in series [2] (NaN3 (20 μL, 1M)) it was 1550 ± 40; in series [2] (OD600 = 10), 1940 ± 20; in series [2] (initial conditions) it was 1340 ± 40. In addition, the “improvement in catalytic efficiency (kcat/KM) compared to the wild-type enzyme” value in series [3] was “around 2 fold”. Moreover, the “activity and enantioselectivity” value in series [4] is “higher activity but lower enantioselectivity than Sav HppD Az2”.

B2: HppD Az2: septuple mutant Sav HppD V189A N191A S230L P243G N245F Q255P L367I, SEQ ID NO: 3 (protein)
chain: B1 chain with N191A, A216F, S230L, A243G, Q245F, A255P
For B2, in series [1], the “1N/1A (ratio of 1N to 1A among products)” value is listed as 19.3, the “1N/1F (ratio of 1N to 1F among products)” value amounted to 30.6 and the “TTN (total turnover)” value is 490 ± 20. Also, the “TTN (total turnover)” value in series [1] (listed as Sav HppD Az2) amounted to 490. Besides, in series [2] (setting [9]), the 1/1A was 19.3, the 1/1F is listed as 30.6 and the TTN amounted to 490 ± 20. In series [2] (setting [8]), the 1/1A is reported as 7.0, the 1/1F was found to be 18.0 and the TTN was found to be 260 ± 30. In series [2] (setting [10]), the 1/1A amounted to 21.0, the 1/1F is 34.0 and the TTN was 1820 ± 50. In addition, the “improvement in catalytic efficiency (kcat/KM) compared to the wild-type enzyme” value in series [3] is reported as “around 2 fold”.

B3: Sav HppD: (4-hydroxyphenyl)pyruvate dioxygenase from Streptomyces avermitilis, SEQ ID NO: 1, Uniprot Q53586 (protein, listed as Streptomyces sp.)
chain: B1 chain with A189V, A216F, A243P, Q245N, A255Q, I367L
B3: in series [5] (no azide addition), the “1A % (yield of 1A)” value is recorded as 6.5% and the “1F % (yield of 1F)” value worked out at 2.2%. In series [5] (setting [11]), the “1A % (yield of 1A)” value stood at 10.0% and the “1F % (yield of 1F)” value is recorded as 3.7%. The “1N % (yield of 1N)” value in series [5] (whole E. coli cells OD600=40, 1NF, NaN3, Fe2+, room temperature, 24 hours) was determined as 33.0 ± 2.0%. Also, in series [1], the “1N/1A (ratio of 1N to 1A among products)” value turned out to be 3.0, the “1N/1F (ratio of 1N to 1F among products)” value is reported as 9.0 and the “TTN (total turnover)” value is given as 250 ± 10.
